Measurements published in patent US20240327523A1 (University of California, published 2024).

T1: Fc-CD94 (biotinylated Fc fusion protein with the extracellular domain of human CD94 fused at the C-terminal … (human, UniProt Q13241 32-179, biotinylated on the biotin-acceptor-tag (~90% biotinylation)))
T1 chain: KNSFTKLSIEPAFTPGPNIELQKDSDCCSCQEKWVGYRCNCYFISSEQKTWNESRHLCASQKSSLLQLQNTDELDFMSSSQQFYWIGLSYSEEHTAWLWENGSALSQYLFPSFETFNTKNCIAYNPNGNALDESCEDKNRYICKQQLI

T2: Fc-CD94 (biotinylated Fc fusion protein with the extracellular domain of human CD94 fused at the C-terminal … (human, UniProt Q13241 32-179, biotinylated on the biotin-acceptor-tag (~90% biotinylation)))
T2 construct: extracellular domain; Expressed in Expi293 cells; also called CD94 Fc fusion protein; Fc-CD94 fusion protein; not shown: biotin-acceptor-tag at the N-terminus; human IgG1 Fc; TEV proteolysis site between the ECD and Fc-domain
T2 sequence (looked up): T1 chain

T3: human CD94 expressed on Ba/F3 cells (human, UniProt Q13241 1-179)
T3 construct: whole, on cells; Mouse Ba/F3 cells stably transduced with a retroviral vector encoding human CD94; also called Ba/F3 transfectants expressing human CD94
T3 sequence (looked up): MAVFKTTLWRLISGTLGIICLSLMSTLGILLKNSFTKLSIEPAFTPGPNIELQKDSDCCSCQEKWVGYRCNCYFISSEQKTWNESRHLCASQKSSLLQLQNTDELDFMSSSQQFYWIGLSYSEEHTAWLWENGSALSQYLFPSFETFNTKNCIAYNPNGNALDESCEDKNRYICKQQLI

B1: JLS002-rAB22 Fab (Fab, V domains shown)
VH: EVQLVESGGGLVQPGGSLRLSCAASGFNVYSSSIHWVRQAPGKGLEWVAYISSYSGYTYYADSVKGRFTISADTSKNTAYLQMNSLRAEDTAVYYCARGRYQGMDYWGQGTLVTVSS
VL: DIQMTQSPSSLSASVGDRVTITCRASQSVSSAVAWYQQKPGKAPKLLIYSASSLYSGVPSRFSGSRSGTDFTLTISSLQPEDFATYYCQQYAYHLITFGQGTKVEIK
notes: Fab expressed and purified after phage selection
B2: JLS002-rAB22 IgG (antibody, V domains shown)
VH: B1 VH
VL: B1 VL
notes: also called rab22 JIS002 rab 22
B3: JLS002-rAB23 Fab (Fab, V domains shown)
VH: EVQLVESGGGLVQPGGSLRLSCAASGFNVYSSSIHWVRQAPGKGLEWVASISSYSGSTSYADSVKGRFTISADTSKNTAYLQMNSLRAEDTAVYYCARYGYYMSGAMDYWGQGTLVTVSS
VL: DIQMTQSPSSLSASVGDRVTITCRASQSVSSAVAWYQQKPGKAPKLLIYSASSLYSGVPSRFSGSRSGTDFTLTISSLQPEDFATYYCQQKKAYSLITFGQGTKVEIK
notes: as for B1
B4: JLS002-rAB23 IgG (antibody, V domains shown)
VH: B3 VH
VL: B3 VL
notes: also called JSI002 rab 23

Assays:
[1] = target: T1, Fc-CD94 (biotinylated Fc fusion protein …); test: ELISA
[2] = target: T2, Fc-CD94 (biotinylated Fc fusion protein …); test: multipoint ELISA of purified Fab
[3] = target: T1, Fc-CD94 (biotinylated Fc fusion protein …); test: BLI (Octet)
[4] = target: T2, Fc-CD94 (biotinylated Fc fusion protein …); test: assay not given; IgG affinity was measured by Octet BLI on immobilized Fc-CD94 (FIG. 3)
Protocol: An octet assay was used to measure the affinity of IgG for the two binders JLS002-rAB22 and JLS002-rAB23. An Octet RED384 (ForteBio) instrument was used to measure the affinity of IgG for the two binders, JLS002-rAB22 and JLS002-rAB23. Fc-CD94 fusion protein was immobilized on a bio-layer interfrometry biosensor coated with streptavidin.
After blocking with PBST buffer (PBS+[…]) containing 10 μM of biotin, the IgGs being tested were loaded for 15 minutes followed by change to PBST buffer without IgG for ˜30 minutes. The kinetic binding curve was recorded.

[5] = target: T3, human CD94 expressed on Ba/F3 cells; test: flow cytometry staining of Ba/F3 transfectants, PE-conjugated anti-human IgG1
Protocol: Mouse Ba/F3 cells were stably transduced with retroviral vectors encoding human CD94 or with human CD94, human NKG2C, and human DAP12 as described in Lanier, L. L., B. C. Corliss, J. Wu, and J. H. Phillips. 1998. Association of DAP12 with activating CD94/NKG2C NK cell receptors. Immunity 8:693-701. PMID: 9655483. The Ba/F3 transfectants were incubated with phosphate buffered saline (unstained) or with the rab22 JIS002 rab 22 or JSI002 rab 23 antibodies, washed, and then stained with PE-conjugated anti-human IgG1 using standard methods.

Binder | EC50 [1] [nM] | binding result [2] | Kd [3] [nM] | binding result [4] | binding result [5]
B1 | 3.42 | binds | – | – | –
B2 | – | – | 1.74 | binds | binds
B3 | 2.98 | binds | – | – | –
B4 | – | – | 0.94 | binds | binds
